Test results published in US20230417748A1 (GREEN CROSS, published 2023).

Columns and labels:
Assay in all cases: ELISA (FIG. 7)
[1] = target: T1, RBD-S477N (Sino biologics, 40592-V08H46) (SARS-CoV-2, UniProt P0DTC2 319-541)
T1 construct: domain: RBD

[2] = target: Spike-D614G (Sino biologics, 40589-V08B4) (SARS-CoV-2, UniProt P0DTC2 16-1213)
[3] = target: T2, RBD-N501Y (Sino biologics, 40592-V08H82) (SARS-CoV-2, UniProt P0DTC2 319-541)
T2 construct: domain: RBD

[4] = target: T3, RBD-P479S (Sino biologics, 40592-V08H57) (SARS-CoV-2, UniProt P0DTC2 319-541)
T3 construct: domain: RBD

[5] = target: T4, RBD-T478I (Sino biologics, 40592-V08H30) (SARS-CoV-2, UniProt P0DTC2 319-541)
T4 construct: domain: RBD

[6] = target: T5, RBD-V367F (Sino biologics, 40592-V08H1) (SARS-CoV-2, UniProt P0DTC2 319-541)
T5 construct: domain: RBD

[7] = target: T6, RBD-N439K (Sino biologics, 40592-V08H14) (SARS-CoV-2, UniProt P0DTC2 319-541)
T6 construct: domain: RBD

[8] = target: T7, RBD-A522S (Sino biologics, 40592-V08H21) (SARS-CoV-2, UniProt P0DTC2 319-541)
T7 construct: domain: RBD

Measured: binding result

B1: M5-4 (antibody, V domains shown)
VH: EVQLVESGGGLVKPGGSLRLSCAASGFTFSSRGMSWVRQAPGKGLEWVSTISFGDIYTYYPDSVKGRFTISRDNAKNSLYLQMNSLRAEDTAVYYCARPNDGYFDYWGQGTLVTVSS
VL: DIQMTQSPSSLSASVGDRVTITCKASQSVSNDVAWYQQKPGKAPKLLIYYASNRYTGVPSRFSGSGSGTDFTLTISSLQPEDFATYYCQQSYSAPYTFGGGTKVEIKR
binds: all assays above
